B1: 10HNisT (deca-histidine tagged NisT, ABC transporter of the nisin precursor peptide) (natural protein, Lactococcus lactis, UniProt Q03203 1-600, looked up)
chain: MDEVKEFTSKQFFYTLLTLPSTLKLIFQLEKRYAIYLIVLNAITAFVPLASLFIYQDLINSVLGSGRHLINIIIIYFIVQVITTVLGQLESYVSGKFDMRLSYSINMRLMRTTSSLELSDYEQADMYNIIEKVTQDSTYKPFQLFNAIIVELSSFISLLSSLFFIGTWNIGVAILLLIVPVLSLVLFLRVGQLEFLIQWQRASSERETWYIVYLLTHDFSFKEIKLNNISNYFIHKFGKLKKGFINQDLAIARKKTYFNIFLDFILNLINILTIFAMILSVRAGKLLIGNLVSLIQAISKINTYSQTMIQNIYIIYNTSLFMEQLFEFLKRESVVHKKIEDTEICNQHIGTVKVINLSYVYPNSNAFALKNINLSFEKGELTAIVGKNGSGKSTLVKIISGLYQPTMGIIQYDKMRSSLMPEEFYQKNISVLFQDFVKYELTIRENIGLSDLSSQWEDEKIIKVLDNLGLDFLKTNNQYVLDTQLGNWFQEGHQLSGGQWQKIALARTFFKKASIYILDEPSAALDPVAEKEIFDYFVALSENNISIFISHSLNAARKANKIVVMKDGQVEDVGSHDVLLRRCQYYQELYYSEQYEDNDE
notes: NisT, lanthipeptide ABC transporter of Lactococcus lactis; nisT gene amplified from genomic DNA of L. lactis NZ97000 and inserted into pNZ-SV10H; TMD is residues 1-347, the NBD begins at H348; Used in detergent (CYMAL5) in the pull-down; also called WT; source: L. lactis NZ9000 (pNZ-SV10HnisT), membranes solubilised with FC-16, purified (IMAC, SEC); not shown: His10 (deca-histidine), N-terminal, …

Legend:
[1] = target: T1, NisT (10HNisT) (Lactococcus lactis, UniProt Q03203); assay: malachite green phosphate release assay, Michaelis-Menten fit; assay type: biochemical; conditions: basal ATPase, no peptide substrate; 1 µM NisT, ATP 0-5 mM, 10 mM MgCl2, 0.4% CYMAL5, 30 °C, 30 min
T1 construct: full length, N-terminal deca-His tag with linker (tag kept), homologous expression in L. lactis NZ9000, solubilised in Fos-choline-16, assayed in CYMAL5
T1 sequence (Q03203 1-600): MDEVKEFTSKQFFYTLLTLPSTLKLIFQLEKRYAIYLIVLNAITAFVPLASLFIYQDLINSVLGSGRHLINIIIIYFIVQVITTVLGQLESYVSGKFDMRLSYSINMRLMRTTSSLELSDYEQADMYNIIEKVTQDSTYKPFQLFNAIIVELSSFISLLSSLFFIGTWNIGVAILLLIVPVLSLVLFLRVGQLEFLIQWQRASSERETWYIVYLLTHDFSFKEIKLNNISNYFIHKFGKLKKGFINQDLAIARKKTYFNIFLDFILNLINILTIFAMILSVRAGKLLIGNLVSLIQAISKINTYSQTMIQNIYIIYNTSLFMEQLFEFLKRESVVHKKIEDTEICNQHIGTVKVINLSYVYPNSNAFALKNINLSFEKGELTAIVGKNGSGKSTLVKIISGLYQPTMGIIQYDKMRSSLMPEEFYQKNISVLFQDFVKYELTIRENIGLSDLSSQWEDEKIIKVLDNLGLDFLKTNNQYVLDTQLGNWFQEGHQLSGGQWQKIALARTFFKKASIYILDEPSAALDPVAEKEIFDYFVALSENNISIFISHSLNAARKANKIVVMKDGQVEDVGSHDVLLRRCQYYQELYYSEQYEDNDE

[2] = target: T2, NisB (dehydratase of nisin precursor peptide) (Lactococcus lactis, UniProt P20103 1-993); assay: pull-down; 10HNisT (~15 ug) immobilised on Ni-NTA magnetic beads; 10 uM NisB, NisC or NisBC added without substrate; activity assay buffer with 0.4% CYMAL5, 400 mM glutamate, 5 mM MgATP; 1 h at 30 C; six washes, elution with 50 mM EDTA; Western blot; conditions: both partners purified
T2 construct: NisB, nisin dehydratase of Lactococcus lactis; NisB alone was not held on Ni-NTA beads, so it probably bore no His tag in the assay; source: purified
T2 sequence (looked up): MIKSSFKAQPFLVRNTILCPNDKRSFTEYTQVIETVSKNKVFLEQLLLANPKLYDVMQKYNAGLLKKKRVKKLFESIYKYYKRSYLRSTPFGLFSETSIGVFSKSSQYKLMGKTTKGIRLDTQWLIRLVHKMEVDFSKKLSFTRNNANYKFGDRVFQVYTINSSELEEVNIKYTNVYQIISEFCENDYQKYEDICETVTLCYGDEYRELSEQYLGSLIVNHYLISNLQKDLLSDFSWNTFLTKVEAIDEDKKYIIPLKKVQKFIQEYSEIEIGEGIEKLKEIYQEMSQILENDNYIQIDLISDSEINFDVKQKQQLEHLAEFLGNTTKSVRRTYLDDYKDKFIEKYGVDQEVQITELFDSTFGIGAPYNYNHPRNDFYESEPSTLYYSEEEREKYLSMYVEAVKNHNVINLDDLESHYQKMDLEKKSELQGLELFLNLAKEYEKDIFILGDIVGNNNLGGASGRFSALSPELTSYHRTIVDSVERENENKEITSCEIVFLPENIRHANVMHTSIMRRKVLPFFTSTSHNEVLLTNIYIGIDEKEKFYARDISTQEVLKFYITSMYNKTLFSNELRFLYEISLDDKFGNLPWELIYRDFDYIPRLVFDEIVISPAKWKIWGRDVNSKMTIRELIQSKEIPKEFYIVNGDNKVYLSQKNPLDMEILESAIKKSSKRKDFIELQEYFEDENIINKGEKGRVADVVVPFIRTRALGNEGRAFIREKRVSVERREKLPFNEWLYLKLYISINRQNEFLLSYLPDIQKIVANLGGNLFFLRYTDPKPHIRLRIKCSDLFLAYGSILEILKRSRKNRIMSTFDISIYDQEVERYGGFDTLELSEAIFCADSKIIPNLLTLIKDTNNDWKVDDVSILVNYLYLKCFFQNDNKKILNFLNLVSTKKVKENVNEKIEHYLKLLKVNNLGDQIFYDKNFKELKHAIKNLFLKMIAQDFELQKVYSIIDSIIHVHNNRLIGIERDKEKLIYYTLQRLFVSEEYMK

[3] = target: B1; assay: as above; conditions: both partners purified

Nc1ncnc2c1ncn2[C@@H]1O[C@H](COP(=O)(O)OP(=O)(O)OP(=O)(O)O)[C@@H](O)[C@H]1O [ATP]
Km [1]: 370 ± 40 µM

B1
binding result [2]: binds

B2: NisC (cyclase of nisin precursor peptide) (enzyme, Lactococcus lactis, UniProt Q03202 1-418, looked up)
chain: MRIMMNKKNIKRNVEKIIAQWDERTRKNKENFDFGELTLSTGLPGIILMLAELKNKDNSKIYQKKIDNYIEYIVSKLSTYGLLTGSLYSGAAGIALSILHLREDDEKYKNLLDSLNRYIEYFVREKIEGFNLENITPPDYDVIEGLSGILSYLLLINDEQYDDLKILIINFLSNLTKENNGLISLYIKSENQMSQSESEMYPLGCLNMGLAHGLAGVGCILAYAHIKGYSNEASLSALQKIIFIYEKFELERKKQFLWKDGLVADELKKEKVIREASFIRDAWCYGGPGISLLYLYGGLALDNDYFVDKAEKILESAMQRKLGIDSYMICHGYSGLIEICSLFKRLLNTKKFDSYMEEFNVNSEQILEEYGDESGTGFLEGISGCILVLSKFEYSINFTYWRQALLLFDDFLKGGKRK
notes: NisC, nisin cyclase of Lactococcus lactis; NisC alone was not held on Ni-NTA beads, so it probably bore no His tag in the assay; source: purified
binding result [3]: binds
